The values that follow come from paper PMC7141177 (Journal of molecular biology, 2018).

Usually stoichiometry N stands for a count of units in the complex or per binding partner. As a reminder, the Kd is a measure of binding affinity in units of concentration. Low readings indicate tighter binding, high ones weaker binding.

Experiment [1] concerns the target AKMT-ΔNTD (aa289–709) (Toxoplasma gondii). Kind of experiment: SEC-MALS. In general terms: In gel filtration, larger molecules generally elute earlier.
The target of the next experiment is AKMT-ΔNTD (Toxoplasma gondii, UniProt B9Q0K5). As to the kind of experiment: isothermal titration calorimetry. It counts as binding. On the technique in general: ITC needs no label: the signal is the heat of the interaction.
For experiment [2], the target named is full-length T. gondii apical complex lysine (K) methyltransferase (AKMT, aa1–709) (Toxoplasma gondii). Kind of experiment: SEC-MALS.
In experiment [3] the target is AKMT-ΔNTD-short (aa309–709) (Toxoplasma gondii). As to the kind of experiment: SEC-MALS.

In the case of “AKMT-ΔNTD (aa289–709) (domain or fragment)”, the stoichiometry N in experiment [1] was 2. With `Nc1ncnc2c1ncn2[C@@H]1O[C@H](C[C@@H](N)CC[C@H](N)C(=O)O)[C@@H](O)[C@H]1O` [sinefungin], the Kd on AKMT-ΔNTD was found to be 260 nM. In experiment [2], “full-length T. gondii apical complex lysine (K) methyltransferase (AKMT, aa1–709) (enzyme)” had a stoichiometry N of 2. In experiment [3], “AKMT-ΔNTD-short (aa309–709) (domain or fragment)” registered a stoichiometry N of 2.
